Experimental findings from paper PMC11879086, “Identification and characterization of a human MORC2 DNA binding region that is required for gene silencing” (Nucleic Acids Research, 2024) are described below.

Data set [1] has as its target T1, MORC2 dephosphorylated (wild-type) (Homo sapiens) (UniProt Q9Y6X9).
T1 sequence: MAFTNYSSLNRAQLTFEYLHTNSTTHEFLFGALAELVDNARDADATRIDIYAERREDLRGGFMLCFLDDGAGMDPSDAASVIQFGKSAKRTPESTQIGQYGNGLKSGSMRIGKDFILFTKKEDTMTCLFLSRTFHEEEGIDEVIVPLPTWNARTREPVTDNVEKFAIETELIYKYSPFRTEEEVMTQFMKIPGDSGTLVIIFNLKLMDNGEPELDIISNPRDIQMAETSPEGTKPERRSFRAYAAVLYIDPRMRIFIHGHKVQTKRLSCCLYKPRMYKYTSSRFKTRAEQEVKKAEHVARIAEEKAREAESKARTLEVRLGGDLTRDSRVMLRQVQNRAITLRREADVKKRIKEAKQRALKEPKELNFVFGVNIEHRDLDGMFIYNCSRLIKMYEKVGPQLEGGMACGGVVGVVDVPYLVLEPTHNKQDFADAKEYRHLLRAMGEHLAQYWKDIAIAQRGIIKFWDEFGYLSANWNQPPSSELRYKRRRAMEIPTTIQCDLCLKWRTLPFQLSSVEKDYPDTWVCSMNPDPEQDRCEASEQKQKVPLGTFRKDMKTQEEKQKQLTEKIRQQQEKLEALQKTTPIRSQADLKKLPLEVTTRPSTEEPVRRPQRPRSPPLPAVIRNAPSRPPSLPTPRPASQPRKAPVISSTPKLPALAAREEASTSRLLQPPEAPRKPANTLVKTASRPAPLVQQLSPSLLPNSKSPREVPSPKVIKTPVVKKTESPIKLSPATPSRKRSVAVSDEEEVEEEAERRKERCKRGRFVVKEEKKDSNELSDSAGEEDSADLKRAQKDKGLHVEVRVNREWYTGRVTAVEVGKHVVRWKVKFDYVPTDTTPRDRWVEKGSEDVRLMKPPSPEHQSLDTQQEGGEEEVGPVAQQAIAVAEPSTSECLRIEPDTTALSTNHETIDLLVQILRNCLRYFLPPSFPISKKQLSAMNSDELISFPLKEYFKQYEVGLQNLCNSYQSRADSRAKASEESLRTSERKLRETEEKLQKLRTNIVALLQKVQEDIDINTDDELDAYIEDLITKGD
As to the kind of experiment: fluorescence anisotropy. The conditions noted are these: apo; FA/EMSA: 50 mM NaCl, 3 mM MgCl2, 20 mM Na-HEPES pH 7.4, 1 mM TCEP, 10% glycerol, 0.025 mM ZnCl2, 50 ug/ml BSA, room temperature; 1 nM nucleic acid (FA) or 20 nM. For orientation: In fluorescence polarisation assays a small probe gives low polarisation when free and higher when bound to something large.

For data set [2], the system named is MBP-MORC2 wild-type (Homo sapiens). As to the kind of experiment: pull-down. To be noted: FA/EMSA: 50 mM NaCl, 3 mM MgCl2, 20 mM Na-HEPES pH 7.4, 1 mM TCEP, 10% glycerol, 0.025 mM ZnCl2, 50 ug/ml BSA, room temperature; 1 nM nucleic acid (FA) or 20 nM. (A gel shift assay detects complexes by their altered migration in electrophoresis.)
The target of data set [3] is T2, MORC2 dephosphorylated (wild-type) (Homo sapiens, UniProt Q9Y6X9 1-1032).
T2 sequence: T1 sequence
In words: fluorescence anisotropy; apo ('5 or less'); FA/EMSA: 50 mM NaCl, 3 mM MgCl2, 20 mM Na-HEPES pH 7.4, 1 mM TCEP, 10% glycerol, 0.025 mM ZnCl2, 50 ug/ml BSA, room temperature; 1 nM nucleic acid (FA) or 20 nM DNA (EMSA). The conditions noted are these: protein: recombinant; tags: tag removed by TEV; chain copies: 2; label: 5'-6-FAM; blunt.

Data set [4] addresses T2, MORC2 dephosphorylated (wild-type). As to the kind of experiment: fluorescence anisotropy; apo; FA/EMSA: 50 mM NaCl, 3 mM MgCl2, 20 mM Na-HEPES pH 7.4, 1 mM TCEP, 10% glycerol, 0.025 mM ZnCl2, 50 ug/ml BSA, room temperature; 1 nM nucleic acid (FA) or 20 nM DNA (EMSA). The conditions noted are these: protein: recombinant, tags: tag removed by TEV, chain copies: 2, label: 5'-6-FAM.

Data set [5] deals with the molecule itself. In words: SEC-MALS; coiled coil 3, 1.5 mg/ml, 150 mM NaCl, 3 mM MgCl2, 20 mM Na-HEPES pH 7.4, 0.5 mM TCEP, 1.5% glycerol, 0.025 mM ZnCl2; Wyatt 010 column. In general terms: In gel filtration, larger molecules generally elute earlier.
Data set [6] has as its target T2, MORC2 dephosphorylated (wild-type). In words: fluorescence anisotropy; apo; Hill slope 0.6; FA/EMSA: 50 mM NaCl, 3 mM MgCl2, 20 mM Na-HEPES pH 7.4, 1 mM TCEP, 10% glycerol, 0.025 mM ZnCl2, 50 ug/ml BSA, room temperature; 1 nM nucleic acid (FA) or 20 nM DNA (EMSA). To be noted: protein: recombinant; tags: tag removed by TEV; chain copies: 2; label: 5'-6-FAM on oligo 3; four-way junction of 4 strands.

Data set [7] concerns the molecule itself. In words: SEC-MALS; full-length MORC2, 2 mg/ml, 150 mM NaCl, 3 mM MgCl2, 20 mM Na-HEPES pH 7.4, 0.5 mM TCEP, 1.5% glycerol, 0.025 mM ZnCl2, without AMP-PNP; Wyatt 030 column.

As for “ATATCGATGTATATATCTGACACGTGCCTGGAGACTAGGGAGTAATCCCCTTGGCGGTTAAAACGCGGGGGACAGCGCGTACGTGCGTTTAAGCGGTGCTAGAGCTGTCTACGACCAATTGAGCGGCCTCGGCACCGGGATTCTGATAT (double strand) [Nucleosome on 2-601-2 DNA]”, the Kd (as a rule, a measure of binding affinity in units of concentration) in data set [1] worked out at 16 nM.

As for pUC19 linear, the binding signal (fold less than circular) in data set [2] was 30.

B1: Random 65mer dsDNA (dsDNA)
DNA 1: ATTCTCCAGGGCGGCCGCGTATAGGGTCCATCAGAATTCGGATGAACTCGGTGTGAAGAAAGATC
DNA 2: GATCTTTCTTCACACCGAGTTCATCCGAATTCTGATGGACCCTATACGCGGCCGCCCTGGAGAAT
Take B1: in data set [3], the Kd was under 5 nM.

B2: Random 25mer dsDNA (dsDNA)
DNA 1: TCCATCAGAATTCGGATGAACTCGG
DNA 2: CCGAGTTCATCCGAATTCTGATGGA
For B2, the Kd in data set [4] (blunt) amounted to 21 ± 2 nM.

B3: MORC2 coiled coil 3 (residues 900-1032) (domain or fragment, human, UniProt Q9Y6X9 900-1032, looked up)
chain: ALSTNHETIDLLVQILRNCLRYFLPPSFPISKKQLSAMNSDELISFPLKEYFKQYEVGLQNLCNSYQSRADSRAKASEESLRTSERKLRETEEKLQKLRTNIVALLQKVQEDIDINTDDELDAYIEDLITKGD
notes: also called CC3; isolated MORC2 C-terminus; source: E. coli BL21 (DE3) RIL, purified (HisTrap, TEV cleavage, S75 SEC); not shown: His6, N-terminal, cleaved
For B3, the stoichiometry N (commonly the number of molecules, sites or subunits per partner or assembly) in data set [5] was determined as 2.

B4: Random 45mer dsDNA (dsDNA)
DNA 1: GCCGCGTATAGGGTCCATCAGAATTCGGATGAACTCGGTGTGAAG
DNA 2: CTTCACACCGAGTTCATCCGAATTCTGATGGACCCTATACGCGGC
In the case of B4, in data set [4] (blunt), the Kd came to 11 ± 3 nM.

B5: High AT 35mer dsDNA (dsDNA)
DNA 1: CATCATCAAAGACCAAAAGTAGATAAAACCACAAA
DNA 2: TTTGTGGTTTTATCTACTTTTGGTCTTTGATGATG
For B5, the Kd in data set [3] was under 5 nM.

Turning to ATAGGGTCCATCAGAATTCGGATGAACTCGGTGTG (ssDNA) [Random 35mer ssDNA], the Kd in data set [4] was 51 ± 9 nM.

B6: Cruciform DNA (structured_DNA)
DNA 1: CCCTATAACCCCTGCATTGAATTCCAGTCTGATAA
DNA 2: GTAGTCGTGATAGGTGCAGGGGTTATAGGG
DNA 3: AACAGTAGCTCTTATTCGAGCTCGCGCCCTATCACGACTA
DNA 4: TTTATCAGACTGGAATTCAAGCGCGAGCTCGAATAAGAGCTACTGT
On to B6, for which the Kd in data set [6] was 78 ± 12 nM.

B7: 149 bp Widom 601 dsDNA (2-601-2) (dsDNA)
DNA 1: ATATCGATGTATATATCTGACACGTGCCTGGAGACTAGGGAGTAATCCCCTTGGCGGTTAAAACGCGGGGGACAGCGCGTACGTGCGTTTAAGCGGTGCTAGAGCTGTCTACGACCAATTGAGCGGCCTCGGCACCGGGATTCTGATAT
DNA 2: ATATCAGAATCCCGGTGCCGAGGCCGCTCAATTGGTCGTAGACAGCTCTAGCACCGCTTAAACGCACGTACGCGCTGTCCCCCGCGTTTTAACCGCCAAGGGGATTACTCCCTAGTCTCCAGGCACGTGTCAGATATATACATCGATAT
Consider B7, for which, in data set [3], the dissociation constant Kd is under 5 nM.

Take AUAGGGUCCAUCAGAAUUCGGAUGAACUCGGUGUG (ssRNA) [Random 35mer ssRNA]: the dissociation constant (Kd) in data set [4] was found to be 49 ± 6 nM.

B8: full-length human MORC2 (dephosphorylated, wild-type) (natural protein, UniProt Q9Y6X9 1-1032, looked up)
chain: T1 sequence
notes: Cloned into vector 438-B (N-terminal His6-TEV) and into 438-C (N-terminal His6-MBP-TEV); Heterogeneous phosphorylation from insect cells was removed by phosphatase treatment; also called wild-type MORC2; full-length MORC2; not shown: His6, N-terminal, cleaved
With B8, in data set [7], the “stoichiometry N” value was determined as 2.
